Data set [1] concerns the target NaK2CNG, mutant of NaK with the selectivity filter substituted to TVGDTPP, lacking the first 19 residues (UniProt Q81HW2). Kind of data set: crystal structure; MicroED (electron diffraction) of single microcrystals grown in Tris pH 8.0 and 60-80% MPD; protein in 0.2% DM with 150 mM NaCl (NaK) or 150 mM KCl (NaK2CNG); space group I4, two monomers in the asymmetric unit, tetramers generated by crystal symmetry.

Data set [2] deals with the molecule itself. The data set is described as above.

Consider two molecules from PMC12376597, “High‐Throughput MicroED for Probing Ion Channel Dynamics” (Advanced Science, 2025).

The stoichiometry N is the number of molecules, sites or subunits per partner or assembly.

In turn, “NaK2CNG, mutant of NaK with the selectivity filter substituted to TVGDTPP, lacking the first 19 residues (from UniProt Q81HW2 20-114) (natural protein)” displayed a stoichiometry N in data set [1] of 4.

B1: NaK, non-selective ion channel, lacking the first 19 residues (natural protein, UniProt Q81HW2 20-114, looked up)
chain: KDKEFQVLFVLTILTLISGTIFYSTVEGLRPIDALYFSVVTLTTVGDGNFSPQTDFGKIFTILYIFIGIGLVFGFIHKLAVNVQLPSILSNRKKE
notes: NaK non-selective cation channel, construct lacking the first 19 residues; model for molecular replacement was PDB 3E89; Tetrameric channel; in space group I4 the tetramer is generated from one monomer by crystal symmetry, and the two monomers of the asymmetric unit give two tetramers; also called NaK channel
Take B1: in data set [2], the “stoichiometry N” value amounted to 4.
